B1: Complement factor H (Homo sapiens), P08603-1 (parent)
chain: MRLLAKIICLMLWAICVAEDCNELPPRRNTEILTGSWSDQTYPEGTQAIYKCRPGYRSLGNVIMVCRKGEWVALNPLRKCQKRPCGHPGDTPFGTFTLTGGNVFEYGVKAVYTCNEGYQLLGEINYRECDTDGWTNDIPICEVVKCLPVTAPENGKIVSSAMEPDREYHFGQAVRFVCNSGYKIEGDEEMHCSDDGFWSKEKPKCVEISCKSPDVINGSPISQKIIYKENERFQYKCNMGYEYSERGDAVCTESGWRPLPSCEEKSCDNPYIPNGDYSPLRIKHRTGDEITYQCRNGFYPATRGNTAKCTSTGWIPAPRCTLKPCDYPDIKHGGLYHENMRRPYFPVAVGKYYSYYCDEHFETPSGSYWDHIHCTQDGWSPAVPCLRKCYFPYLENGYNQNYGRKFVQGKSIDVACHPGYALPKAQTTVTCMENGWSPTPRCIRVKTCSKSSIDIENGFISESQYTYALKEKAKYQCKLGYVTADGETSGSITCGKDGWSAQPTCIKSCDIPVFMNARTKNDFTWFKLNDTLDYECHDGYESNTGSTTGSIVCGYNGWSDLPICYERECELPKIDVHLVPDRKKDQYKVGEVLKFSCKPGFTIVGPNSVQCYHFGLSPDLPICKEQVQSCGPPPELLNGNVKEKTKEEYGHSEVVEYYCNPRFLMKGPNKIQCVDGEWTTLPVCIVEESTCGDIPELEHGWAQLSSPPYYYGDSVEFNCSESFTMIGHRSITCIHGVWTQLPQCVAIDKLKKCKSSNLIILEEHLKNKKEFDHNSNIRYRCRGKEGWIHTVCINGRWDPEVNCSMAQIQLCPPPPQIPNSHNMTTTLNYRDGEKVSVLCQENYLIQEGEEITCKDGRWQSIPLCVEKIPCSQPPQIEHGTINSSRSSQESYAHGTKLSYTCEGGFRISEENETTCYMGKWSSPPQCEGLPCKSPPEISHGVVAHMSDSYQYGEEVTYKCFEGFGIDGPAIAKCLGEKWSHPPSCIKTDCLSLPSFENAIPMGEKKDVYKAGEQVTYTCATYYKMDGASNVTCINSRWTGRPTCRDTSCVNPPTVQNAYIVSRQMSKYPSGERVRYQCRSPYEMFGDEEVMCLNGNWTEPPQCKDSTGKCGPPPPIDNGDITSFPLSVYAPASSVEYQCQNLYQLEGNKRITCRNGQWSEPPKCLHPCVISREIMENYNIALRWTAKQKLYSRTGESVEFVCKRGYRLSSRSHTLRTTCWDGKLEYPTCAKR
partner: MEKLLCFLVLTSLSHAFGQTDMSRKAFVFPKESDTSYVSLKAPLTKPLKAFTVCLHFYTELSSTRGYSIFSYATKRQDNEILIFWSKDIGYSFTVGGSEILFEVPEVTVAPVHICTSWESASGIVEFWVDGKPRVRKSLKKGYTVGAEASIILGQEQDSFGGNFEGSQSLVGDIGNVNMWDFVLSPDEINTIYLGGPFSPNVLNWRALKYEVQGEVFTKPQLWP
B2: Complement factor H (Homo sapiens), P08603-2 (parent)
chain: MRLLAKIICLMLWAICVAEDCNELPPRRNTEILTGSWSDQTYPEGTQAIYKCRPGYRSLGNVIMVCRKGEWVALNPLRKCQKRPCGHPGDTPFGTFTLTGGNVFEYGVKAVYTCNEGYQLLGEINYRECDTDGWTNDIPICEVVKCLPVTAPENGKIVSSAMEPDREYHFGQAVRFVCNSGYKIEGDEEMHCSDDGFWSKEKPKCVEISCKSPDVINGSPISQKIIYKENERFQYKCNMGYEYSERGDAVCTESGWRPLPSCEEKSCDNPYIPNGDYSPLRIKHRTGDEITYQCRNGFYPATRGNTAKCTSTGWIPAPRCTLKPCDYPDIKHGGLYHENMRRPYFPVAVGKYYSYYCDEHFETPSGSYWDHIHCTQDGWSPAVPCLRKCYFPYLENGYNQNYGRKFVQGKSIDVACHPGYALPKAQTTVTCMENGWSPTPRCIRVSFTL
partner: B1 partner

Variants of: B1
Settings: with crp_human CRP

**Q.** How did the “effect of a mutation on the interaction” value turn out when Y402H was run?
**A.** decreasing interaction strength

Variants of: B2
Settings: with crp_human CRP

**Q.** With Y402H as the variant, how does the “effect of a mutation on the interaction” value read?
**A.** decreasing interaction strength
